# B1: GST-tagged ASF1B (natural protein)
# chain: MAKVSVLNVAVLENPSPFHSPFRFEISFECSEALADDLEWKIIYVGSAESEEFDQILDSVLVGPVPAGRHMFVFQADAPNPSLIPETDAVGVTVVLITCTYHGQEFIRVGYYVNNEYLNPELRENPPMKPDFSQLQRNILASNPRVTRFHINWDNNMDRLEAIETQDPSLGCGLPLNCTPIKGLGLPGCIPGLLPENSMDCI
# Target: recombinant HAT1 holoenzyme (HAT1 and RbAp46) (UniProt O14929;Q16576)
# Experiment: pull-down
# Sequence of recombinant HAT1 holoenzyme (HAT1 and RbAp46) (O14929 whole entry, chain 1 of 2): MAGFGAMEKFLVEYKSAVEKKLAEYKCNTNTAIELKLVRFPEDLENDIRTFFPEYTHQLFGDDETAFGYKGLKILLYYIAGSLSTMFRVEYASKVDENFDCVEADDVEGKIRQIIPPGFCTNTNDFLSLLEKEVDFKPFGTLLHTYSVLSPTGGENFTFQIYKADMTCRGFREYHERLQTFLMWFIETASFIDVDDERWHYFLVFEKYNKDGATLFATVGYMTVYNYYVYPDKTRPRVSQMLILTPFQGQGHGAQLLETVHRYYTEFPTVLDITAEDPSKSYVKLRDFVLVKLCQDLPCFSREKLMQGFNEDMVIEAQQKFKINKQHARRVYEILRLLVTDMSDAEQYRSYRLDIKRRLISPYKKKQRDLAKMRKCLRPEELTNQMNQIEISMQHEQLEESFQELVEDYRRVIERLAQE
# Sequence of recombinant HAT1 holoenzyme (HAT1 and RbAp46) (Q16576 whole entry, chain 2 of 2): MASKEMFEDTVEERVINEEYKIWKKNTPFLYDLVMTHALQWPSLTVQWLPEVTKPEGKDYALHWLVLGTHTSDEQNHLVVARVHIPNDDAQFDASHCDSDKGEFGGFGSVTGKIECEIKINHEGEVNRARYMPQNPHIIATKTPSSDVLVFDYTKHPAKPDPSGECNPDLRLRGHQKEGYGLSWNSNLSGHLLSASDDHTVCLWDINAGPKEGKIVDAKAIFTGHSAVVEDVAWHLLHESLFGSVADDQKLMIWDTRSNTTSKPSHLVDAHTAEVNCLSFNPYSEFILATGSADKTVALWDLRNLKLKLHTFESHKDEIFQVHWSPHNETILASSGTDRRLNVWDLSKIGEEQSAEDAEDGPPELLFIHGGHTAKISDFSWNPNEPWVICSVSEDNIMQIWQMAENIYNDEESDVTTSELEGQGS
binder,measurement,value
B1,binding result,binds
